{"source": "paper PMC5033356", "about": "“Crystal Structure of the Escherichia coli Fic Toxin-Like Protein in Complex with Its Cognate Antitoxin” (PLoS ONE, 2016)", "binders": {"B1": {"name": "EcFicA (cognate antitoxin of EcFicT, wild type) (natural protein, Escherichia coli)", "chain": "KKLTDKQKSRLWELQRNRNFQASRRLEGVEMPLVTLTAAEALARLEELRSHYER", "notes": "EcFicA, product of the yhfG gene (renamed ecficA) of Escherichia coli; UniProt P0ADX5; model of PDB 5JFF covers residues 3-53; also called EcFicAwt; YhfG"}, "B2": {"name": "EcFicA_(E28G) (natural protein, Escherichia coli)", "chain": "KKLTDKQKSRLWELQRNRNFQASRRLGGVEMPLVTLTAAEALARLEELRSHYER", "notes": "model of PDB 5JFZ covers residues 5-53; also called antitoxin mutant EcFicA_(E28G)"}}, "key": {"EcFicT_(G55R)": {"target": "T1, EcFicT_(G55R) (Escherichia coli, UniProt P20605 3-200, G55R)", "T1 construct": "EcFicT of Escherichia coli, UniProt P20605, with G55R (the change encoded by the temperature-sensitive fic-1 allele), introduced by a single base-pair mutation; model of PDB 5JFF covers residues 10-15, 17-198; G55R is the change of the fic-1 mutant allele described by Utsumi et al; here it was introduced into the plasmid by mutagenesis; also called G55R point mutant of EcFicT; product of the …", "T1 sequence": "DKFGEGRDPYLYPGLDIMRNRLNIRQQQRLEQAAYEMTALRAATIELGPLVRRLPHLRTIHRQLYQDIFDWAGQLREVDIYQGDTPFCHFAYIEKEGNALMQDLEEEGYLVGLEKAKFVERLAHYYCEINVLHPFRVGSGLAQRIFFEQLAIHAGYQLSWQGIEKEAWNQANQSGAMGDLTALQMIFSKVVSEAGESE", "experiment": "SEC-MALS", "settings": "both partners purified"}, "[1]": {"target": "T2, EcFicT (E. coli Fic toxin-like protein, wild type) (Escherichia coli, UniProt P20605 3-200)", "T2 construct": "EcFicT, product of the fic gene (renamed ecficT) of Escherichia coli; UniProt P20605; model of PDB 5JFZ covers residues 10-81, 88-195; also called EcFicTwt; Fic protein from E. coli", "T2 sequence": "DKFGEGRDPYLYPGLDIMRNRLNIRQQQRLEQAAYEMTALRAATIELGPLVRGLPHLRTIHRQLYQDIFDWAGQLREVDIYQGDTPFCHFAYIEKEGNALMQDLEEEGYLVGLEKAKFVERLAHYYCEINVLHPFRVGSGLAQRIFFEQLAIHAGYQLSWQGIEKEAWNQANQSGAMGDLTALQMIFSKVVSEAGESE", "experiment": "SEC-MALS", "settings": "both partners purified"}}, "data": [{"binder": "B1", "values": [{"measurement": "stoichiometry N", "setting": "EcFicT_(G55R)", "result": 1}, {"measurement": "stoichiometry N", "setting": "[1]", "result": 1}]}, {"binder": "B2", "values": [{"measurement": "stoichiometry N", "setting": "EcFicT_(G55R)", "result": 1}, {"measurement": "stoichiometry N", "setting": "[1]", "result": 1}]}]}
